Test: label from the status in PepcDB records

Sequence: MHLQPQKKKKHLQTFLHPQQTQVLQTICLQPRQKGRVDSQLIVLQAQQQQALQVPVEAVNCSENMRRLSISEDFSKALQILYNLGKISDNRESFDNTXFYEENLGKALRVNDNTVKPSAPVSTQESLRTVELTEGFRHQCIFDFCRRRDILRYFFDPIKANLSKGHGSNFDKSDSVACTLHPYTPYPHLQQLWVYYMLTYTQYLPLRLVGGQNRCEGRLEVRHEGEWGTVCDDRWNIKNARVVCRLLGCGPALGAPGRSHFGPGTGPILMNEVRCSGREDSLESCAHAGWTRHNCHHREDASVICAGPADSLVPKDNAQLSCLPHLFQAVIDRGYLRRLGYSSWDIHLNDKMCRPQVTGRYLIFNIPYGHCGTVMQKHQGSLSYSNSIRGRTQGHPGRVIVRHKVPQVKFTCKVDGQSAVEIVHGSDTKDEASYDVSISFLQSPVSQNTGGRAPLASQREEVFLQATLHSHNPNLRLVVDTCVASPDASDFTTVKYDLIQEGCIKDNSYSNLHAPEKNVAQFKFNAFSFLKSYDVVYVQCKVAVCRLGDHSSRCSQGCLNRGRRGAGSAEVREEQTEYFQTVGPLKIHREANQSKVLV
- protein production: failed

Sequence: MHLRLSTLAGFKTGPRFQSSMSEAESESRAGREEVWIEKYRPQTLDDVMGHENIVGRLKSYVSRNDLSHMLFSGPAGTGKTTCATAIARELYGDDWREHFLELNASDERGIDVVRDRIKNFARTSFGGVEYRIIFLDEADALTSDAQSALRRTMEQFSNNVRFILSCNYSSQIIDPIQSRCAVFRFSPLADDAVAEEIRTIAAEEDIELTEDGLDALVYAADGDMRKAINGLQAASVSGDTVDESAVYAITSTARPEEIRTMVQSALDGDFTASRATLDRLLTEEGIAGGDIIDQLHRSIWEFDIDDDAAVRVLERIGETDYRITRGANERVQLEAMLASLAQGE
- protein production: failed

Sequence: MHLSRCRKCGRVMKGERIDPYRVKLTCSCGFSDFRTMTEKVKTVNPFFQKGGFSPLLESERGKMVLTMQRANREHLEIISLEEISMLVSSDFDLPEVLQHVTAKVATQLKVSVCNIYLREGDEVVLAATHGFDPAFIGKIRIKIGDGITGSVARDGQYISLSRASQDPRYRYFPELQEEKYNSMLSFPIGDKKEVYGVINLNTTSIRSFHEDEIYFVSIIANLILTAIKLRQQVASSRKAAEASA
- protein production: failed

Sequence: MHMLFYKSYVREFIGEFLGTFVLMFLGEGATANFHTTGLSGDWYKLCLGWGLAVFFGILVSAKLSGAHLNLAVSIGLSSINKFDLKKIPVYFFAQLLGAFVGTSTVYGLYHGFISNSKIPQFAWETSRNPSISLTGAFFNELILTGILLLVILVVVDENICGKFHILKLSSVVGLIILCIGITFGGNTGFALNPSRDLGSRFLSLIAYGKDTFTKDNFYFWVPLVAPCVGSVVFCQFYDKVICPLVDLANNEKDGVDL
- protein production: not failed

Sequence: MHNDQEISDANRDWWDSDAQRYHNDHAAYLNGFHWCPEMLPEREAHLLGDISGLNVLEIGCGSAPCSRWLFDNYDAFVTGFDLSMGMLRHSPTDVPLTQADAVNLPYKDSSFDIAFSAFGAFPFIENLGPVLKDIARCLKPHGKLVFSTNHPMRWIFPDDPTEIGLCAELSYFDRSYTERDKNGKITYAEFHRTMGDWIELLNASGFIIDRLIEPEWPTNLTETWGQWSPLRGRIFPGTAIFVTHCRLEHHHHHH
- protein production: failed

Sequence: MHNKKWDLRIICAHAFTILIWGTAFPAIRMGLESYTPEHLTLLRLLIASFILLLFSFIYKLRLPDLKDIPAIFIFGALGFTIYHIALNYGEKTVNAGSASLIISVTPIVTAILASVFLNEKMKLNGWLGGVISFAGIALISFSQGDAIQLNSGGLFILLAAISESLFFVFQTSYLKKYGFLPFTIYTILSSTVCMLIFLPGVYQEILAAPLEVNLSVIYLGVFPTVLPYIALAYIISRAGASEATSSLYLTPITACFIAWIWLGEVPTLVSIIGGGITILGIVIAHIPVLRKEKHRNLANNQSV
- protein production: failed

Sequence: MHNLANLYRTGWPGGVEKDTQKALDLYQKMIDLDVPQGFYDMGAMIGNRAGVKNPATDGLTFLDKAASLGNPPALTELGKFYIYVAKKKDLGLAYTHCAASQGYAPASYELGAYYKIVEHNFPKALVYYQVSVSQGGKSAAFFLSRVFGSETPPASAMWYAPDEKLREAYYSIYKKLEADPLEHHHHHH
- protein production: failed

Sequence: MHPNIATLLSANLGESRTRHLLSLVSVPDGLPSDAEGRATRAEIAQALNMVLFAGILDRVPTGRAYTDDVAATGGKVVFDHGALRTVKWRDNGALPEGEAAFTRILRPLGYRLNGNYPLDRISMTGRSYAHADAPEGIAQFFVSEFHPERFSDAFREAVGRVTGNSADPLTPRAQTLLWQLDRDGVLTVADGAELIGLLVPCFERQHGVPRLADYETLLRESAEMAWIATEGNAFNHATDRVDDVFGLSEQQKALGRPMKDKVEVSGSGRVKQTAFRADTVRRQFIGAQGETVERDVPGSFYEFITRDRFADAPAASPRVDLGFDAGNAQGIFKMTAAV
- protein production: not failed

Sequence: MHPTIARMQEVVAKGDESLIHALLAEDVRFMPPTYYKTWTGRDPVAAVLGHVGQVFSEFRYRRIMGEGKDWALEFQCKVGELDAVGVDLITLNEGGLIQDFEVVMRPYKTVGALRDAMNARVMTDARFLKYREALS
- protein production: not failed

Sequence: MHQQGIRMEGMSDLNALNLEPGEVVGGYTLISRLGSGAMGSVWRVRDDGGTTYAMKILRDSLADESVAGSGSASAALHDPDLKPDVTPRERLRREAMALKKVNHPGVCGIVDMELDDTLAFIVTELIEGKNLKDDVAANGRYVGDDLERLARKLIDATKAVHAAGIVHRDIKPTNVMVSAAGPVLVDFGIAMGEGESHVTRTGLVMGTPGFIAPEIIDGAESDEATDWWSVASVLAFAATGAPVFGTKPMMAVLEREASGNANLSGLPAGTLAAFRSALDPDRTKRCTPDQLLNAIALDALNPAVWQGAQAGPFAAGAIAGGANTIAPAAGTAGETEAVPPFGAAGHVDRNNPRTIWRATDEAAQALTDEATTTLPDSAAPAISDEATVQLAGATVPLTEATTPLTSEATTPLTPVTGEPLLAPTTPLAERTAVLPSPQPTAFPPTPPVQLVGGMAQNGWNPAAADVQATVVDPNIRPALQRVIDQTAQFAPTEALVQQPLAPNPADVKRGEYLQRGVFPLLLLALPLAVLAASMPLIALLAAAAMLWLLLTLAYNTEPQLEREGRRGGERKSSDTWIRAATLPWHIVKALLLSLPRMVLLIVIAIAGTAAATMALALPTQTVYWYFTPERGVPIPLLNDVPLSASGLALGGFMAIGWLVTVFGPQAMMARLGAGVLRGLNPRQAQSPMPLAYDGSPAVPSPAAMAPASATRGKRSTMLFTIWIIVTLALCTLPLTGMAIDWTPLV
- protein production: failed

Sequence: MHRFFATRTSRIISVVLSLTFLAGCSLSEIDRIERQTKDSGEIARRISDTNRAKAQPAVRWMDKPWVSLKPLAPVVANPEEKILPPCQITINRPDGMNLPELGQRITGLCGPRVTITPDAFLVLSPANVRSGTSQQMPGSLPAPDGHGRVSLPYLGAQSPSASVMKQSDKHISTLKWQGDLPGLLDTIGSRLGLSWRVNKGNIVFYQLDTRMFQLVILNTKISSSASVTSGSSSSIGSSGGTNSGVSGESSSAQKTSVDLNSDLYGDIKKTIENMLTPSKGRFWLSSASGTLTVTDTPETLERIGRYIDYQNELLNRQVQLNVQVLSVTQSRKEQFGLDWKLVYQSLNNIGASVTGNLINAADNAFSGGLSILDTATGPAAKFSGSELLIKALSQQGNVSLVTELNRATINLTPVPFQISDQTGYIQSSSTTATANAGTTSSMQTGIITTGLFMSMLPYIQENGDVQLQFAFTLSDKPTIQPFFSRDGNTRTDTPAFKLRSLTQTVNMRAGQTLVLTGADQLDSVANKQGAFTPGNFLFGGGHVGSDTRTTLVILITPVLLR
- protein production: failed

Sequence: MHSAALLQKVDELPRLPKAIAELLDVVNNEDSTVKAVSEKLSHDPVLSARVLRLANSARFGCSREVGTIDDAVVRLGMQTLRTLVIASAVVGAVPKVEGFDLADFWGNTFEVAIICQELAKRLGTLPEEAFTCGILHSIGELLIVNGDPAVAATISAAVADGADRNLMEKELLGYDNAEIGALLAQSWKFTPHLVKGIQFQNHPKSAEPYSKLAGMLAMAKQIAADWDKIPDDERTSWLAQINILAGIKVDLGGLAEKLAKMHGQGMEMGKQLA
- protein production: not failed

Sequence: MHSPHDPYVRVRDAREHNLKGVDVDVPRDVLAVFTGVSGSGKSSLAFGTVYAEAQRRYFESVAPYARRLIHQIGAPKVGGITGLPPAVSLQQRRATPTSRSSVGTVTNLSNSLRMLFSRAGTYPPGAERLDSDAFSPNTAAGACPECHGLGRVHRTTEELLVPDPSLSIRDGAIAAWPGAWQGKNLRDVLDALGYDVDRPWRELPAEAREWILFTDEQPVVTVHPVREAGRIQRPYQGTYMSARRYVLKTFADSKSATLRAKAERFLNSAPCPVCGGGRLRAEALAVTVGGRTVAELAALPLAELPRLLPTEGEAAKVLAEDLISRIAPVVELGLGYLSLDRPTPTLSAGELQRLRLATQLRSGLFGVVYVLDEPSAGLHPADTEALLTVLERLKAAGNSVFVVEHHLGVMRGADWIVDVGPLAGEHGGRVLYSGPVDGLARVAESATARHLFDRSPAPVREVRTPRGAVTIGPVTRHNLRGVTVRVPLGVLTAVTGVSGSGKSTLVGEITEDLPGVDRLVSVDQRPIGRTPRSNLATYTGLFDVVRKVFAATDRARERGFGVGRFSFNVPGGRCETCQGEGFVSVELLFLPSTYAPCPDCGGARYNPETLEVAYRGRNIAEVLDLTVEGAAQFFTDTPAVARSLAALLDVGLGYLRLGQPATELSGGEAQRIKLASELQRGRRGHTLYLLDEPTTGLHPADVEVLMRQLHGLVDAGHTVVVVEHDMSVVAGADHVIDLGPGGGDAGGRIVAEGTPARVAGAAGSATAPYLARALDGGERR
- protein production: failed

Sequence: MHSTLLRTALLTAALGSFSHTATAEGVMVHLFQWKFNDIANECETVLGPKGFGGVQITPPAEHKQGSQVWWTVYQPVSFKNFNSFGGSEAELRSMIARCNAAGVKVYADAVFNQLASGSGTATGGGSYNAGQYQYPQFGYNDFHHSGDITNYGDSNNVWNGALYGMPDLNTGSPYVQDQIATYMKTLLGWGVAGFRIDAAKHMAPTDVKAILDKAGSPKAYLEVIGAGGESPDIQPGRYTYIDTVTDFKYGTDLAANFNGQIKNLKTLGESWGLLPSAKAFVFVVNHDRERGHGGGGMLTFMSGARYDLANTFMIAWPYGWKQVMSGYRFENMSTYETDKGAPGSTPCTDSQWNCEQRRPTIMNMALFHNRTEGQPVSNWWDNGNNQIAFGRGDKGFVAINNESGSLVASLQTALPAGEYCNLLGGNDYCSGGYVTVDGSGKASLNVPGMKAAAIIAGCTKASPCGGSALPGTKFSSMNLRGTHNAWGNTPMTVDANRVWSATLTLTGNGDATGAQRFKFDVFGNWAENYGDNEGDGIADKGSSKDILVSGAGSYRITLNESDLRYTVTPLTSNQAPVAALSPKTLSVKAGESVVFDASASHDDGGVVSYSWSSGGTAATETVRFDTPGTYTVTVTVTDAEGLTASASATVTVTDDNGTYTSVLPTLNFRGTPNAWGSLAMTLVADNQWEALVTFNGQANQRFKFDVKGDWSKNYGDTNKDGVAELAGSDILTSVTGQYRVRFNDQTLQYSLTPVSVGYAKNFASLNIRGTTNNWGSTPMSLVGDHLWQASVTFTGSGDGNGGQRFKFDVKGDWTQNYGDTNRDGVAEQAGADITTALVGVYVVRFNDQTLAYSLNAQ
- protein production: failed

Sequence: MHTALINHIRKFIFLTDEDAGTLSAFFQLKKVRKKETLLKTGEICRINYFVVKGCLRLFFIDEKGIEQTTQFAIENWWLSDYMAFQKQQPADFYIQSVENCELLSITYTEQENLFERIPALERYFRLVYQKSFAAAQLRSKFQHMYSKEEQYHNFSSRFPEFIQRVPQYLLASYLGFTPEYLSEIRKKYIS
- protein production: not failed

Sequence: MHTARFPSSATPSIFFRYFMALNEQDVARIARLALIELPPDQRGRAQAELNGILHLIERLQAVDTQGVEPLAHPLSAHEDITLRLREDAVSEQATEARRAELLANAPESADGLFLVPKVIE
- protein production: failed

Reference: a protein production outcome set (Wang et al. 2014)
